# T1: Human NKp30 (BKM0179) (human, UniProt O14931)
# T1 chain: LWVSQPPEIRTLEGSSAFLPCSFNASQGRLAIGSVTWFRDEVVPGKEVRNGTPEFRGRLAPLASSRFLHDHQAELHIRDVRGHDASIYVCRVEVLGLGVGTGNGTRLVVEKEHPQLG
# Target: T1, Human NKp30 (BKM0179)
binder,measurement,value
"BKM0138 (BJM0411 VL-N95A) (antibody, V domains shown) VH: EIQLLESGGGLVQPGGSLRLSCAVSGFSITTTGYHWNWVRQAPGKGLEWVGYIYSSGSTSYNPSLKSRFTISRDTSKNTFYLQMNSLRAEDTAVYYCARGDWHYFDYWGQGTMVTVSS VL: DSVTTQSPLSLPVTLGQPASISCSGEKLSDKYVHWYQQRPGQSPRMLIYENDRRPSGVPDRFSGSNSGNDATLKVEAEDVGVYFCQFWDSTASAVFGGGTKVEIKI",Kd,3.2 nM

# From patent US20260327306 (published 2026)
